Columns and labels:
Assay in all cases: ELISA, albumin preparation immobilized on 96-well microplate
[1] = target: human serum albumin protein adduct with 4-HNE (human) (UniProt P02768)
[2] = target: bovine serum albumin protein adduct with 4-HNE (bovine) (UniProt P02769)
[3] = target: rat serum albumin protein adduct with 4-HNE (rat) (UniProt P02770)
[4] = target: rabbit serum albumin protein adduct with 4-HNE (rabbit) (UniProt P49065)
[5] = target: T1, bovine serum albumin modified with glyceraldehyde (bovine, UniProt P02769 25-607, non-enzymatically modified by incubation with glyceraldehyde (50 mM, 7 days); sites not stated)
T1 construct: also called Glyceraldehyde BSA
Description: (§1) Each mixed solution of substrate albumin and a protein-modifying substance was immobilized on a 96-well microplate, and was investigated for specificity to the anti-4-HNE antibody (#13-1-1) of the present invention by an ELISA method.

[6] = target: T2, rat serum albumin modified with glycolaldehyde (rat, UniProt P02770 25-608, non-enzymatically modified by incubation with glycolaldehyde (50 mM, 7 days); sites not stated)
T2 construct: also called Glycolaldehyde Rat-SA
Description: as §1

[7] = target: T3, rabbit serum albumin modified with methylglyoxal (rabbit, UniProt P49065 25-608, non-enzymatically modified by incubation with methylglyoxal (50 mM, 7 days); sites not stated)
T3 construct: also called Methylglyoxal Rabbit-SA
Description: as §1

[8] = target: T4, rat serum albumin modified with malondialdehyde (rat, UniProt P02770 25-608, non-enzymatically modified by incubation with malondialdehyde (MDA, 50 mM, 7 days); sites not stated)
T4 construct: also called MDA Rat-SA
Description: as §1

[9] = target: T5, human serum albumin modified with glycolaldehyde (human, UniProt P02768 25-609, non-enzymatically modified by incubation with glycolaldehyde (50 mM, 7 days); sites not stated)
T5 construct: also called Glycolaldehyde HSA
Description: as §1

[10] = target: T6, bovine serum albumin modified with methylglyoxal (bovine, UniProt P02769 25-607, non-enzymatically modified by incubation with methylglyoxal (50 mM, 7 days); sites not stated)
T6 construct: also called Methylglyoxal BSA
Description: as §1

[11] = target: T7, rabbit serum albumin modified with malondialdehyde (rabbit, UniProt P49065 25-608, non-enzymatically modified by incubation with malondialdehyde (MDA, 50 mM, 7 days); sites not stated)
T7 construct: also called MDA Rabbit-SA
Description: as §1

[12] = target: T8, rabbit serum albumin modified with glyoxal (rabbit, UniProt P49065 25-608, non-enzymatically modified by incubation with glyoxal (50 mM, 7 days); sites not stated)
T8 construct: also called Glyoxal Rabbit-SA
Description: as §1

[13] = target: T9, bovine serum albumin modified with glycolaldehyde (bovine, UniProt P02769 25-607, non-enzymatically modified by incubation with glycolaldehyde (50 mM, 7 days); sites not stated)
T9 construct: also called Glycolaldehyde BSA
Description: as §1

[14] = target: T10, rabbit serum albumin, unmodified (rabbit, UniProt P49065 25-608)
T10 construct: also called Rabbit-SA
Description: as §1

[15] = target: T11, human serum albumin modified with glyoxal (human, UniProt P02768 25-609, non-enzymatically modified by incubation with glyoxal (50 mM, 7 days); sites not stated)
T11 construct: also called Glyoxal HSA
Description: as §1

[16] = target: T12, human serum albumin modified with methylglyoxal (human, UniProt P02768 25-609, non-enzymatically modified by incubation with methylglyoxal (50 mM, 7 days); sites not stated)
T12 construct: also called Methylglyoxal HSA
Description: as §1

[17] = target: T13, human serum albumin modified with crotonaldehyde (human, UniProt P02768 25-609, non-enzymatically modified by incubation with crotonaldehyde (CRA, 50 mM, 7 days); sites not stated)
T13 construct: also called CRA HSA
Description: as §1

[18] = target: T14, human serum albumin modified with malondialdehyde (human, UniProt P02768 25-609, non-enzymatically modified by incubation with malondialdehyde (MDA, 50 mM, 7 days); sites not stated)
T14 construct: also called MDA HSA
Description: as §1

[19] = target: T15, human serum albumin modified with D-glucose (human, UniProt P02768 25-609, non-enzymatically modified by incubation with D-glucose (250 mM, 3 weeks); sites not stated)
T15 construct: also called D-glucose HSA
Description: as §1

[20] = target: T16, human serum albumin, unmodified (human, UniProt P02768 25-609)
T16 construct: also called HSA
Description: as §1

[21] = target: T17, rat serum albumin modified with crotonaldehyde (rat, UniProt P02770 25-608, non-enzymatically modified by incubation with crotonaldehyde (CRA, 50 mM, 7 days); sites not stated)
T17 construct: also called CRA Rat-SA
Description: as §1

[22] = target: T18, rabbit serum albumin modified with crotonaldehyde (rabbit, UniProt P49065 25-608, non-enzymatically modified by incubation with crotonaldehyde (CRA, 50 mM, 7 days); sites not stated)
T18 construct: also called CRA Rabbit-SA
Description: as §1

[23] = target: T19, rat serum albumin modified with D-glucose (rat, UniProt P02770 25-608, non-enzymatically modified by incubation with D-glucose (250 mM, 3 weeks); sites not stated)
T19 construct: also called D-glucose Rat-SA
Description: as §1

[24] = target: T20, rabbit serum albumin modified with D-glucose (rabbit, UniProt P49065 25-608, non-enzymatically modified by incubation with D-glucose (250 mM, 3 weeks); sites not stated)
T20 construct: also called D-glucose Rabbit-SA
Description: as §1

[25] = target: T21, rat serum albumin modified with glyoxal (rat, UniProt P02770 25-608, non-enzymatically modified by incubation with glyoxal (50 mM, 7 days); sites not stated)
T21 construct: also called Glyoxal Rat-SA
Description: as §1

[26] = target: T22, bovine serum albumin modified with glyoxal (bovine, UniProt P02769 25-607, non-enzymatically modified by incubation with glyoxal (50 mM, 7 days); sites not stated)
T22 construct: also called Glyoxal BSA
Description: as §1

[27] = target: T23, human serum albumin modified with glyceraldehyde (human, UniProt P02768 25-609, non-enzymatically modified by incubation with glyceraldehyde (50 mM, 7 days); sites not stated)
T23 construct: also called Glyceraldehyde HSA
Description: as §1

[28] = target: T24, rat serum albumin modified with methylglyoxal (rat, UniProt P02770 25-608, non-enzymatically modified by incubation with methylglyoxal (50 mM, 7 days); sites not stated)
T24 construct: also called Methylglyoxal Rat-SA
Description: as §1

[29] = target: T25, bovine serum albumin modified with D-glucose (bovine, UniProt P02769 25-607, non-enzymatically modified by incubation with D-glucose (250 mM, 3 weeks); sites not stated)
T25 construct: also called D-glucose BSA
Description: as §1

[30] = target: T26, rat serum albumin modified with glyceraldehyde (rat, UniProt P02770 25-608, non-enzymatically modified by incubation with glyceraldehyde (50 mM, 7 days); sites not stated)
T26 construct: also called Glyceraldehyde Rat-SA
Description: as §1

[31] = target: T27, rabbit serum albumin modified with glyceraldehyde (rabbit, UniProt P49065 25-608, non-enzymatically modified by incubation with glyceraldehyde (50 mM, 7 days); sites not stated)
T27 construct: also called Glyceraldehyde Rabbit-SA
Description: as §1

[32] = target: T28, rabbit serum albumin modified with glycolaldehyde (rabbit, UniProt P49065 25-608, non-enzymatically modified by incubation with glycolaldehyde (50 mM, 7 days); sites not stated)
T28 construct: also called Glycolaldehyde Rabbit-SA
Description: as §1

[33] = target: T29, bovine serum albumin modified with crotonaldehyde (bovine, UniProt P02769 25-607, non-enzymatically modified by incubation with crotonaldehyde (CRA, 50 mM, 7 days); sites not stated)
T29 construct: also called CRA BSA
Description: as §1

[34] = target: T30, bovine serum albumin, unmodified (bovine, UniProt P02769 25-607)
T30 construct: also called BSA
Description: as §1

[35] = target: T31, bovine serum albumin modified with malondialdehyde (bovine, UniProt P02769 25-607, non-enzymatically modified by incubation with malondialdehyde (MDA, 50 mM, 7 days); sites not stated)
T31 construct: also called MDA BSA
Description: as §1

[36] = target: T32, rat serum albumin, unmodified (rat, UniProt P02770 25-608)
T32 construct: also called Rat-SA
Description: as §1

Sequence of bovine serum albumin protein adduct with 4-HNE (bovine) (P02769 25-607 limits assumed, form in doubt): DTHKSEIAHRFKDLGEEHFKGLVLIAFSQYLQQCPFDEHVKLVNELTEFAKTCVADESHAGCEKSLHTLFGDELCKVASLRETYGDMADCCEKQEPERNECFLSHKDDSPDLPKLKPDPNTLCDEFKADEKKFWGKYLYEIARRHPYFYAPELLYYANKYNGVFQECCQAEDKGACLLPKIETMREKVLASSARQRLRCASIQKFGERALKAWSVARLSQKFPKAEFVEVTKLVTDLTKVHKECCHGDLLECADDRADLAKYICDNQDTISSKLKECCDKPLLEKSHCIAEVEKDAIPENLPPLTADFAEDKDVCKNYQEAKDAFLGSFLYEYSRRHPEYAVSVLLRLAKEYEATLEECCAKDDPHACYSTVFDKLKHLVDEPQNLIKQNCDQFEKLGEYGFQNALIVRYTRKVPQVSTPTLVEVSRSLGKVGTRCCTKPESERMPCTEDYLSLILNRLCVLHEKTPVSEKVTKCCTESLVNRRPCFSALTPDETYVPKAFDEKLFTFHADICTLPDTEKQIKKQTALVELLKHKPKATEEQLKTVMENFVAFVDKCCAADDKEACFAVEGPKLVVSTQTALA
T25 sequence (P02769 25-607 limits assumed): as the sequence (P02769 25-607 limits assumed, form in doubt) above
T1 sequence (P02769 25-607 limits assumed): as the sequence (P02769 25-607 limits assumed, form in doubt) above
T31 sequence (P02769 25-607 limits assumed): as the sequence (P02769 25-607 limits assumed, form in doubt) above
T9 sequence (P02769 25-607 limits assumed): as the sequence (P02769 25-607 limits assumed, form in doubt) above
T22 sequence (P02769 25-607 limits assumed): as the sequence (P02769 25-607 limits assumed, form in doubt) above
T6 sequence (P02769 25-607 limits assumed): as the sequence (P02769 25-607 limits assumed, form in doubt) above
T29 sequence (P02769 25-607 limits assumed): as the sequence (P02769 25-607 limits assumed, form in doubt) above
T30 sequence (P02769 25-607 limits assumed): as the sequence (P02769 25-607 limits assumed, form in doubt) above
Sequence of rabbit serum albumin protein adduct with 4-HNE (rabbit) (P49065 25-608 limits assumed, form in doubt): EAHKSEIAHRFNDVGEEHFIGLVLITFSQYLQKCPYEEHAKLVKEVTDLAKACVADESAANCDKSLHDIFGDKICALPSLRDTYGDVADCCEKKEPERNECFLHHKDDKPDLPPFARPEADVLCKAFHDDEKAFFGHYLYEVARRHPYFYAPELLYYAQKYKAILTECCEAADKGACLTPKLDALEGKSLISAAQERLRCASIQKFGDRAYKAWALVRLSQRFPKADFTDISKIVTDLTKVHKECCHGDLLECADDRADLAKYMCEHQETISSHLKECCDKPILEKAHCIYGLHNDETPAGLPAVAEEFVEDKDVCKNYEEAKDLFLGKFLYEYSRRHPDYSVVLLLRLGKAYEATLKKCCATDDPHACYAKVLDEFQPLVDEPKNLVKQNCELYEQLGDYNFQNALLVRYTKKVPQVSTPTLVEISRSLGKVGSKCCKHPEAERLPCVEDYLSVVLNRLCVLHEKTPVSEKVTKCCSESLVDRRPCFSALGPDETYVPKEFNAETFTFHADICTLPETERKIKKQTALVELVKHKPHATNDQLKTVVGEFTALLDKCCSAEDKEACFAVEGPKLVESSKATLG
T28 sequence (P49065 25-608 limits assumed): as the sequence (P49065 25-608 limits assumed, form in doubt) above
T10 sequence (P49065 25-608 limits assumed): as the sequence (P49065 25-608 limits assumed, form in doubt) above
T20 sequence (P49065 25-608 limits assumed): as the sequence (P49065 25-608 limits assumed, form in doubt) above
T27 sequence (P49065 25-608 limits assumed): as the sequence (P49065 25-608 limits assumed, form in doubt) above
T8 sequence (P49065 25-608 limits assumed): as the sequence (P49065 25-608 limits assumed, form in doubt) above
T3 sequence (P49065 25-608 limits assumed): as the sequence (P49065 25-608 limits assumed, form in doubt) above
T18 sequence (P49065 25-608 limits assumed): as the sequence (P49065 25-608 limits assumed, form in doubt) above
T7 sequence (P49065 25-608 limits assumed): as the sequence (P49065 25-608 limits assumed, form in doubt) above
T17 sequence (P02770 25-608 limits assumed): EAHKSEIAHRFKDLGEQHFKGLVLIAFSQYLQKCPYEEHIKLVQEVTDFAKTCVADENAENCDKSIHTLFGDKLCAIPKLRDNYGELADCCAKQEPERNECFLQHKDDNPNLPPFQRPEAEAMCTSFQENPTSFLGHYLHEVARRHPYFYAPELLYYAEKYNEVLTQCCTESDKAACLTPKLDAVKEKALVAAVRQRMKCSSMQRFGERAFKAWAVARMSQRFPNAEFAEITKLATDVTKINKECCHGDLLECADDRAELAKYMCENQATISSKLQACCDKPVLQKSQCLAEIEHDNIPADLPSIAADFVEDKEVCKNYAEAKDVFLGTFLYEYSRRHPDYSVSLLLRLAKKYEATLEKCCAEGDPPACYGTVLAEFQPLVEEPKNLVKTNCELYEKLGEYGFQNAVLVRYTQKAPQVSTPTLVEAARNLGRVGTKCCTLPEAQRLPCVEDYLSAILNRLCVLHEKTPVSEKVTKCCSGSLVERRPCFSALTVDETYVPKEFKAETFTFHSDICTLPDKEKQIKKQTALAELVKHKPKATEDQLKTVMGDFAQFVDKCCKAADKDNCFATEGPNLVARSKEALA
T4 sequence (P02770 25-608 limits assumed): as above
T26 sequence (P02770 25-608 limits assumed): as above
T2 sequence (P02770 25-608 limits assumed): as above
T19 sequence (P02770 25-608 limits assumed): as above
Sequence of rat serum albumin protein adduct with 4-HNE (rat) (P02770 25-608 limits assumed, form in doubt): as the sequence (P02770 25-608 limits assumed) above
T21 sequence (P02770 25-608 limits assumed): as above
T24 sequence (P02770 25-608 limits assumed): as above
T32 sequence (P02770 25-608 limits assumed): as above
T15 sequence (P02768 25-609 limits assumed): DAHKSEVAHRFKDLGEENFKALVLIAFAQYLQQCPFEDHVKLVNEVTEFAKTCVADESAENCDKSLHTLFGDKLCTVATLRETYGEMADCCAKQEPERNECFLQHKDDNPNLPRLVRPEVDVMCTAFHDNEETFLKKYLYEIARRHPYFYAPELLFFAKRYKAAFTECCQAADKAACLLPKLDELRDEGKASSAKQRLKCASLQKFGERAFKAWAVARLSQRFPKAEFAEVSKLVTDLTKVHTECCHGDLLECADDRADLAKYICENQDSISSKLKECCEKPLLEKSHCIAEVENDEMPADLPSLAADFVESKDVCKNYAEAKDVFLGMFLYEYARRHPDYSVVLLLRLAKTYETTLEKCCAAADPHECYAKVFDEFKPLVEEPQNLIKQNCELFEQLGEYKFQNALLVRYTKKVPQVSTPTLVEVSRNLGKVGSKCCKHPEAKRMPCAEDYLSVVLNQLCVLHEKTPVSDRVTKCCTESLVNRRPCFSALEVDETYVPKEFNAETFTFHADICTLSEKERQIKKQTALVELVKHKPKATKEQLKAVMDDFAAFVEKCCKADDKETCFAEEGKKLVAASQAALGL
T23 sequence (P02768 25-609 limits assumed): as above
T16 sequence (P02768 25-609 limits assumed): as above
T13 sequence (P02768 25-609 limits assumed): as above
T5 sequence (P02768 25-609 limits assumed): as above
T14 sequence (P02768 25-609 limits assumed): as above
T11 sequence (P02768 25-609 limits assumed): as above
Sequence of human serum albumin protein adduct with 4-HNE (human) (P02768 25-609 limits assumed, form in doubt): as the sequence (P02768 25-609 limits assumed) above
T12 sequence (P02768 25-609 limits assumed): as above

- ELISA reading (name and unit not given) [1]: 0.956
- ELISA reading (name and unit not given) [2]: 1.11
- ELISA reading (name and unit not given) [3]: 1.37
- ELISA reading (name and unit not given) [4]: 0.663
- ELISA reading (name and unit not given) [5]: 0.07
- ELISA reading (name and unit not given) [6]: 0.07
- ELISA reading (name and unit not given) [7]: 0.072
- ELISA reading (name and unit not given) [8]: 0.08
- ELISA reading (name and unit not given) [9]: 0.071
- ELISA reading (name and unit not given) [10]: 0.073
- ELISA reading (name and unit not given) [11]: 0.07
- ELISA reading (name and unit not given) [12]: 0.073
- ELISA reading (name and unit not given) [13]: 0.071
- ELISA reading (name and unit not given) [14]: 0.114
- ELISA reading (name and unit not given) [15]: 0.065
- ELISA reading (name and unit not given) [16]: 0.069
- ELISA reading (name and unit not given) [17]: 0.077
- ELISA reading (name and unit not given) [18]: 0.065
- ELISA reading (name and unit not given) [19]: 0.068
- ELISA reading (name and unit not given) [20]: 0.118
- ELISA reading (name and unit not given) [21]: 0.141
- ELISA reading (name and unit not given) [22]: 0.074
- ELISA reading (name and unit not given) [23]: 0.076
- ELISA reading (name and unit not given) [24]: 0.069
- ELISA reading (name and unit not given) [25]: 0.073
- ELISA reading (name and unit not given) [26]: 0.066
- ELISA reading (name and unit not given) [27]: 0.068
- ELISA reading (name and unit not given) [28]: 0.074
- ELISA reading (name and unit not given) [29]: 0.081
- ELISA reading (name and unit not given) [30]: 0.069
- ELISA reading (name and unit not given) [31]: 0.069
- ELISA reading (name and unit not given) [32]: 0.067
- ELISA reading (name and unit not given) [33]: 0.156
- ELISA reading (name and unit not given) [34]: 0.15
- ELISA reading (name and unit not given) [35]: 0.074
- ELISA reading (name and unit not given) [36]: 0.088
B1: anti-4-HNE monoclonal antibody (#13-1-1) (antibody, V domains shown)
VH: EVKLLASGGGLVQPGGSMRLSCAASGFTFTDFYMYWIRQPAGKAPEWLGFIRNKANGYTTEYNPSVKGRFTISRDNTQNMLYLQMNTLRAEDTATYYCALGYYGYNYNWFAYWGQGTLVTVSS
VL: ETVMTQSPTSMSTSIGERVTLNCRASQSVGINVDWYQQTPGQSPKMLIYGASNRHTGVPDRFTGSGFGRDFTLTISNMEAEDLGVYYCLQYASIPYTFGAGTKLELKR
notes: Rat hybridoma monoclonal antibody; also called anti-4-HNE antibody (#13-1-1); monoclonal antibody produced from Rat hybridoma #13-1-1

Source: patent US20250026860A1 (NATIONAL UNIVERSITY CORPORATION OKAYAMA UNIVERSITY, published 2025)
